Results: patent US6127178A, “Apoptotic peptides” (The Regents of the University of California, priority 1998, dated 2000)
“Also recorded” adds a separate entry of the source.

Tests used:
32D.3 myeloid cells [1] = test: Viability by trypan blue dye exclusion in 32D.3 transfectants; type: cell-based, mouse; conditions: for rates of cell death: following withdrawal of IL-3, relative to control cells
Text: cDNA constructs and establishment of cell lines. The mouse 32D.3 myeloid cell line was maintained in RPMI 1640 medium (GIBCO) supplemented with 10% fetal calf serum and 20U of IL-3 per ml as previously described (3, 12). The human IdI, Id2 and Id3 cDNAs (5, 6, 11) were introduced into the pMAM-Neo expression plasmid (Clontech, Palo Alto, Calif.) at the Xhol site. Mutations in Id2 and Id3 were generated by the polymerase chain reaction. To prepare an N-terminus deletion mutant, a 0.3 kb SalI-XhoI fragment lacking the region encoding amino acids 1-34 was inserted into the pMAM vector. A C-terminally truncated Id2 was prepared by removing a SmaI fragment containing cDNA corresponding to amino acids 93-135. Id2ΔHLH was prepared as previously described (34) and subcloned into the pMAM vector at the XhoI site. The primary structure of all mutants was confirmed by DNA sequencing. 32D.3 cells were electroporated as previously described with 10 μg of linearized plasmid DNA (12). Transfected cells were selected in medium containing 0.4/mg/ml G418 and single cell clones were isolated by limiting dilution, as well as pools of transfectants. To prepare additional cultures, drug-resistant clones and pools of clones were prepared by transfecting cells with pMAMNeo DNA alone and pMAMNeo containing Id2 cDNAs in the antisense orientation. 32D.3 cells were grown in suspension and maintained at equivalent exponential growth phases by seeding at 1×10^5 cells per ml culture medium. All subsequent analyses were performed using cells harvested at 0.5-1×10^6 cells per ml.
Viability and apoptosis assays. To investigate the effects of Id gene expression upon viability, cells growing exponentially in the presence of IL-3 (20 U/ml) were treated with dexamethasone for 16 hours. The cells were collected by centrifugation at 200×g for 10 min, washed twice in PBS, and resuspended in RPMI medium with 10% fetal bovine serum without IL-3. The number of viable cells was determined at various times after IL-3 withdrawal by trypan blue dye exclusion. […]

U20S osteosarcoma cells = test: DNA content by flow cytometry in tet-regulated U20S transfectants; type: cell-based; conditions: clone 9, four days after removal of tetracycline (1000 ng/ml), in serum
Method: To prepare a recombinant expression construct encoding Id2 which could be regulated by the addition of tetracycline to the culture media, the Kpn1/HindIII filled-in fragment of Id2 cDNA was inserted into the pUHD 10-3 vector (26) at EcoRI blunt-ended sites to prepare a tTA-responsive Id2 expression vector. DNA from pUHD-10-3Id2 was used in addition to DNA from pTet-TAk (GIBCO), encoding the tetracycline-regulatable tTA protein. Stable transfectants were prepared in the U20S osteosarcoma cell line by performing a 3 vector transfection using LipofectAmine (GIBCO) at a DNA ratio of 5:5:1 between pTet-Id2:ptet-TAk:pcDNA-3 and selected in the presence of DME/10%FBS/G418 (0.6 mg/ml)/tetracycline (5 μg/ml) media was changed after 2 days. […] To show expression of Id2, cells were trypsinized and plated with varying concentrations of tetracycline (0-1000 ng/ml).
To determine the extent of apoptosis in U20S cells transfected with pTet-Id2 DNA, cells were plated at a density of 5×10^5 cells per p100 plate and allowed to adhere for 24 hours in the presence of 1000 ng/ml tetracycline (tet). Then the media was changed to either 0 or 1000 ng/ml tet after 2 washes with PBS. The cells were maintained in the culture for 4 days before harvesting by trypsinization (floating cells were also harvested). […] DNA content was determined by flow cytometry on a FACSort (53).

Bax = test: Immunoblot of apoptosis regulators in 32D.3 transfectants; type: cell-based, mouse
Method: Expression of Id genes and immunoblot analysis. Id gene expression was induced by addition of 1 μM dexamethasone (Sigma) for 16 hours. Cells were then collected at the indicated times by centrifugation, washed in PBS, and whole cell lysates were prepared by resuspending the pellets in RIPA buffer (150 mM NaCl, 1 mM EDTA, 1% Nonidet P-40, 1% sodium deoxycholate, 20 mM Tris-HCl pH 7.2) containing protease inhibitors (1 μM phenylmethyl-sulfonylfluoride, 0.01 μM benzamidine HCl, 1 μg/ml o-phenanthroline, and 0.5 μg/ml each of antipain, leupeptin, pepstatin A, and aprotinin). The lysates were then clarified by centrifugation and examined by 12.5% SDS-PAGE. Western blot analysis was carried out to detect expression of Id proteins using the sc-489 rabbit polyclonal antibody against Id2 (Santa Cruz Biotechnology, Santa Cruz, Calif.) and rabbit polyclonal antibodies generated against bacterially expressed Id1 or Id3 (C. Hernandez, unpublished). The expression of Bax proteins was monitored using a rabbit anti-Bax polyclonal sc-930 (Santa Cruz Biotechnology, Santa Cruz, Calif.). Briefly, blots were washed with blocking buffer [4% milk powder and 0.2% Tween-20 in phosphate-buffered saline (PBS)], incubated with anti-Id2 or Bax antibodies (used at a 1:1000 dilution in blocking buffer), washed, and incubated with peroxidase-conjugated […]. […]

32D.3 myeloid cells [2] = test: Apoptosis (TUNEL) assay in 32D.3 transfectants; type: cell-based, mouse; conditions: following IL-3 withdrawal, dex-induced expression
Text: cDNA constructs and establishment of cell lines. The mouse 32D.3 myeloid cell line was maintained in RPMI 1640 medium (GIBCO) supplemented with 10% fetal calf serum and 20U of IL-3 per ml as previously described (3, 12). The human IdI, Id2 and Id3 cDNAs (5, 6, 11) were introduced into the pMAM-Neo expression plasmid (Clontech, Palo Alto, Calif.) at the Xhol site. Mutations in Id2 and Id3 were generated by the polymerase chain reaction. To prepare an N-terminus deletion mutant, a 0.3 kb SalI-XhoI fragment lacking the region encoding amino acids 1-34 was inserted into the pMAM vector. A C-terminally truncated Id2 was prepared by removing a SmaI fragment containing cDNA corresponding to amino acids 93-135. Id2ΔHLH was prepared as previously described (34) and subcloned into the pMAM vector at the XhoI site. The primary structure of all mutants was confirmed by DNA sequencing. 32D.3 cells were electroporated as previously described with 10 μg of linearized plasmid DNA (12). […]
Expression of Id genes and immunoblot analysis. […] The expression of Bax proteins was monitored using a rabbit anti-Bax polyclonal sc-930 (Santa Cruz Biotechnology, Santa Cruz, Calif.). […]
Viability and apoptosis assays. […] The number of viable cells was determined at various times after IL-3 withdrawal by trypan blue dye exclusion. […]

32D.3 myeloid cells [3] = test: FACS analysis of subdiploid population in 32D.3 transfectants; type: cell-based, mouse; conditions: following IL-3 removal
Method: Id2 enhances apoptosis in 32D.3 myeloid cells following IL-3 withdrawal. Since Id2 levels in 32D.3 cells increased in association with IL-3 withdrawal, we examined the effect of increasing Id2 expression on the apoptotic response of these cells. 32D.3 myeloid progenitor cells were transfected with the dexamethasone (dex)-inducible pMAMNeo expression vector containing a full-length Id2 cDNA. The expression of Id2 in clones and pools of transfectants was determined in immunoblots, and we observed a 3-4 fold increase in Id2 protein levels upon treatment of the cells with dex for 16 hours as compared to cells transfected with vector DNA or with a pMAMNeo recombinant plasmid with Id2 in the antisense orientation.

B1: Id3: Id family helix-loop-helix protein expressed in 32D.3 cells from pMAMNeo (protein, UniProt P41133 1-119, looked up)
DNA-binding protein inhibitor …: MKALSPVRGCYEAVCCLSERSLAIARGRGKSPSTEEPLSLLDDMNHCYSRLRELVPGVPRGTQLSQVEILQRVIDYILDLQVVLAEPAPGPPDGPHLPIQTAELTPELVISKDKRSFCH
For B1, the “rates of cell death” value (32D.3 myeloid cells [1]) was “without effect”.

B2: Id2: full-length Id2 helix-loop-helix protein expressed from transfected cDNA (pMAMNeo dex-inducible or tet-regulated vector) (protein, UniProt Q02363 1-134, looked up)
chain: MKAFSPVRSVRKNSLSDHSLGISRSKTPVDDPMSLLYNMNDCYSKLKELVPSIPQNKKVSKMEILQHVIDYILDLQIALDSHPTIVSLHHQRPGQNQASRTPLTTLNTDISILSLQASEFPSELMSNDSKALCG
modifications: full-length
With B2 the “apoptotic cells with subdiploid DNA content” value (U20S osteosarcoma cells) was “a large proportion of apoptotic cells with subdiploid DNA content”, the “rates of cell death” value (32D.3 myeloid cells [1]) was “dramatically accelerated rates of death” and the effects on viability (32D.3 myeloid cells [1]; presence of IL-3, 16 hours of treatment with dex) was “only minor effects on viability”. The “levels of other known regulators including Bad, Bcl-2, Bcl-XL and Bcl-XS” value (Bax; cultured in IL-3) was “no changes”, the Bax levels (Bax; cultured in IL-3, relative to vector transfected cells) was “elevated” and the “extent of apoptosis by the TUNEL assay” value (32D.3 myeloid cells [2]) was “significantly elevated apoptosis; also recorded: concentration-dependent; also recorded: expected enhancement in apoptosis”. The “subdiploid population, indicative of apoptotic DNA fragmentation” value (32D.3 myeloid cells [3]) was “significantly augmented”.
